How the values were obtained:
Abp1 (1xFLAG) = experiment: Western blot expression level of Abp1 SH3-swapped baits (Fig. S2A-B); assay type: cell-based, Saccharomyces cerevisiae; design: Flag (2 bands): unit not given here; conditions: sheet FigS2A-B; for Ratio Swap/WT Flag: Flag signal relative to Abp1 WT (Abp1-1 to Abp1-4 = 1); for Flag (2 bands): Western blot Flag signal (2 bands), Abp1 WT, SH3-deleted or SH3-swapped
Experimental: Precultures of yeast cells expressing baits fused with the DHFR F[1,2]-FLAG were grown overnight at 30 °C with agitation in synthetic complete medium. The next day, cells were expanded in synthetic complete medium to reach their exponential phase (OD600 of around 1.0), pelleted, and frozen at −80 °C. The equivalent of fifty OD600 of cells was resuspended in ice-cold yeast lysis buffer (10 mM Tris-HCl pH 7.4, 150 mM NaCl, 0.5 mM EDTA (Millipore Sigma), 1% Triton X-100 (Millipore Sigma), and one cOmplete Mini Protease Inhibitor Cocktail (Millipore Sigma) per 10 mL) with […] glass beads (Millipore Sigma) and disrupted at 4 °C by 10 cycles of 2 min vortexing and 2 min cooldown. The equivalent of […] of lysed cells was used for the immunoprecipitation of the bait proteins using FLAG-M2 agarose beads (Millipore Sigma). The beads were incubated with the cell lysates for 120 min at 4 °C with a slow rotation, followed by three washes with the yeast lysis buffer.
Protein extracts and affinity-purified baits from yeast and human lysed cells were migrated on 10% polyacrylamide gels. The separated proteins were then transferred to nitrocellulose membranes. Validation of correct protein loading was done with ponceau staining of the membranes. Before the primary antibody incubations, membranes were blocked in 5% milk. Protein signals were detected on an Amersham Imager 600RGB (GE Healthcare) following the incubation of the membranes with the appropriate HRP-conjugated secondary antibodies and the Clarity Western ECL Substrate (Bio-Rad). The antibodies used in this study are M2-HRP (A8592, Sigma, 1/50,000), rabbit anti-FLAG (F7425, Sigma, 1/1000), PAK (SC-881, Santa Cruz, 1/200), p130cas/BCAR1 (SC-860, Santa Cruz, 1/200), actin (Cell Signaling Technology, 1/2000), anti-mouse HRP (Cell Signaling Technology, 1/10,000) and anti-rabbit HRP (Cell Signaling Technology, 1/10,000). The quantification of the WB signals was performed with the Amersham Imager 600 analysis software (GE Healthcare).

Abp1 PPIs = experiment: DHFR-PCA of Abp1 SH3-swapped baits (Fig. 2B-D, S2C, S2F); assay type: cell-based, Saccharomyces cerevisiae; conditions: number of interactions of Abp1 carrying the named SH3; sheet FigS2A-B
From the text: Having determined that multiple PPIs require SH3s, we asked whether the latter establish PPI specificity independently from their host proteins by swapping domains (Fig. 2A). Using the second round of genome editing, we individually replaced Abp1 SH3 with the 27 yeast SH3s and 3 human Abp1 orthologs’ SH3s (CTTN, HCLS1, and DBNL, Fig. 2B). The reintroduction of its own SH3 (Abp1SH3 in Abp1) reconstitutes almost perfectly Abp1’s interaction profile (Kendall’s τ = 0.93, Fig. 2B). […] No homologous SH3 domain fully re-establishes the normal Abp1 PPI profile (Fig. 2B and Supplementary Fig. 2C). However, we observe a significant correlation (cophenetic correlation = 0.20, p value = 0.005, Fig. 2C) between the similarity of PPI profiles (Fig. 2B) and the sequence similarity of the SH3s. […] Nonetheless, a subset of SH3-dependent PPIs is only observed with the endogenous domain. For instance, Hua2 and App1, both well-characterized partners of Abp1[14],[18],[19], are only detected when Abp1 contains its own SH3 (WT or swapped via editing). A given SH3 may therefore not be fully replaceable with other paralogous or orthologous domains. This pattern is confirmed by cellular growth phenotypic analyses (Supplementary Fig. 2D, E). PPIs, SH3 sequence similarity, and growth profiles under stress conditions are correlated (Supplementary Fig. 2D, E). This relationship is particularly clear when analyzing growth on media supplemented with hygromycin.
The stuffing of YSC84 SH3 rendered the strain sterile and was therefore not used for this study as the assays require crosses. For genes containing two SH3s (BZZ1 and BEM1), a combination of this first stuffer with a second one ([…]) coding for a highly similar linker ([…]) was used, which allowed targeting each SH3 position independently. The two N-terminal domains of SLA1, which are separated by six nucleotides, were stuffed by a single stuffer. Cells containing pCAS were selected via the G418 resistance cassette from the plasmid on YPD plates (YPD + NAT 100 μg/ml (DHFR F[1,2] selection) + G418 200 µg/mL (Bioshop Canada)). Colonies were randomly selected and grown in YPD media without G418 to allow plasmid loss. The correct insertion of the stuffer was validated by PCR and Sanger sequencing. The SH3-swapped, -shuffled, and -mutated strains were constructed following a second CRISPR–Cas9 editing step with the same procedures. The stuffer sequences were targeted by specific gRNAs (one gRNA per stuffer) and replaced by PCR amplified specific SH3 (with 40 bp homology arms) or libraries of mutated SH3 domains for Deep Mutational Scanning (DMS) with 78 bp flanking homology regions. Validation of the SH3 domain insertions was done as we previously described except for DMS libraries (see below).
The overall DHFR-PCA pipeline is based on Tarassov et al.[43] and the procedures have also been published as a visualized protocol. The screens were performed with robotically manipulated pin tools (BM5-SC1, S&P Robotics Inc.). First, the preys were cherry-picked from 96-well plates to omnitrays in a 384 format on YPD + HPH solid media. Plates were then combined into the 1536 format on YPD + HPH. The array was constituted of 575 preys previously shown to interact physically with at least one SH3-containing protein as reported in BioGRID V3.4.16 along with 40 negative controls. The prey array comprised a border of control strains of two rows and two columns corresponding to the PPI between LSM8-DHFR F[1,2] and CDC39-DHFR F[3]. This double border was used to remove border effects. Preys are present in duplicate at a randomized position in the 1536 array (except for YAL041W which is present four times per array). Baits were crossed with two prey plates, resulting in four independent bait–prey tests for each PPI. Baits were grown in liquid YPD + NAT and then transferred on solid YPD + NAT omnitrays. They were then replicated on YPD + NAT omnitrays in 1536 array format. […]

Molecule	Ratio Swap/WT Flag (Abp1 (1xFLAG))	Flag (2 bands) (Abp1 (1xFLAG))	Interactions in Abp1 (Abp1 PPIs)
Abp1-2 (protein, UniProt P15891 2-592, looked up) Actin-binding protein: ALEPIDYTTHSREIDAEYLKIVRGSDPDTTWLIISPNAKKEYEPESTGSSFHDFLQLFDETKVQYGLARVSPPGSDVEKIIIIGWCPDSAPLKTRASFAANFAAVANNLFKGYHVQVTARDEDDLDENELLMKISNAAGARYSIQTSSKQQGKASTPPVKKSFTPSKSPAPVSKKEPVKTPSPAPAAKISSRVNDNNDDDDWNEPELKERDFDQAPLKPNQSSYKPIGKIDLQKVIAEEKAKEDPRLVQKPTAAGSKIDPSSDIANLKNESKLKRDSEFNSFLGTTKPPSMTESSLKNDDDKVIKGFRNEKSPAQLWAERKAKQNSGNAETKAEAPKPEVPEDEPEGEPDVKDLKSKFEGLAASEKEEEEMENKFAPPPKKSEPTIISPKPFSKPQEPVKAEEAEQPKTDYKKIGNPLPGMHIEADNEEEPEENDDDWDDDEDEAAQPPLPSRNVASGAPVQKEEPEQEEIAPSLPSRNSIPAPKQEEAPEQAPEEEIEEEAEEAAPQLPSRSSAAPPPPPRRATPEKKPKENPWATAEYDYDAAEDNELTFVENDKIINIEFVDDDWWLGELEKDGSKGLFPSNYVSLGN	1	221127	86
Boi2 (protein, UniProt P39969 1-1040, looked up) BEM1-interacting protein 2: MSNDREVPTLSQLNTTVSRDKDVSDTLSPDFDSKGSATGRDGGNFPMYIAINEYFKRMEDELDMKPGDKIKVITDDEEYKDGWYFGRNLRTNEEGLYPVVFTQKITVEKAPTLMRAKSTKRIYSPLTNEDPLLSSTFISENDSNSELPTPQPIETAASISRTANGKIERNLSLKNTMSDIDNALLEFKDDSIGPPDRFINSGRDEEHSITHETILSATDGLDVVESNSKPTTSSSTGFLNGDLENQATLINGIDTTKLNPVEAEFWSPEEITAYFIMEGYDVQSASRFQKHKISGKILLELELVHLKELDINSFGTRFEIFKEIEKIKEAIRTNGRSLNRASKTNNANIYNQLMPPANVDQRASYRGHVRKTSQSLEDLPSQQNFIPTPRNTRNSSASKHRPKSLVFDSQEANANIAPDVQIPQVVEEMAGNENLFVSPRRAPKPPSYPSPAQPPKSPLLNNTRTSPSPAQLYSWQSPTLSFSGPKRTSYIDQYSSSDSNFNSRSALPKNNQGGGKALSPIPSPTRNSVRNEDSEGKLTSSSKRNSVPYYGYAPESSSDRKSSCSSHEEEQFQETMNTFERPTSSIYADGSTIASISNDKLAHEKEGKKKPTRHSSSLSSKSKSDSRRNSSLKRSSSASRTSSFKKSSFMLSPFRQQFTDNAARSSSPEENPITSMPSEKNSSPIVDKKSSKKSRSKRRSVSAKEAEIFTETVKDDKNKRSASEAIKGETLKGKSLRQMTARPVAKKKQTSAFIEGLRSISVKEAMKDADFSGWMSKKGSGAMSTWKTRFFTLHGTRLSYFSSTTDTRERGLIDITAHRVVPAKEDDKLVSLYAASTGKGRYCFKLLPPQPGSKKGLTFTQPRTHYFAVDNKEEMRGWMAALIKTTIDIDTSVPIISSYTTPTVSLSKAQEMLAEAREETKLREQQMLENEEDEDQFLWDQQQLQQQQHDNNQGQADRTISASTQRTSDEDNTISTPNLSSANNTTIGSNGFSSPFLLASGLLSPGVARNSSMRGTEKKGKFSTEEDYFGDNSKHKTDKI	0.9819	95048	62
Fus1 (protein, UniProt P11710 1-512, looked up) Nuclear fusion protein FUS1: MVATIMQTTTTVLTTVAAMSTTLASNYISSQASSSTSVTTVTTIATSIRSTPSNLLFSNVAAQPKSSSASTIGLSIGLPIGIFCFGLLILLCYFYLKRNSVSISNPPMSATIPREEEYCRRTNWFSRLFWQSKCEDQNSYSNRDIEKYNDTQWTSGDNMSSKIQYKISKPIIPQHILTPKKTVKNPYAWSGKNISLDPKVNEMEEEKVVDAFLYTKPPNIVHIESSMPSYNDLPSQKTVSSKKTALKTSEKWSYESPLSRWFLRGSTYFKDYGLSKTSLKTPTGAPQLKQMKMLSRISKGYFNESDIMPDERSPILEYNNTPLDANDSVNNLGNTTPDSQITSYRNNNIDLITARPHSVIYGTTAQQTLETNFNDHHDCNKSTEKHELIIPTPSKPLKKRKKRRQSKMYQHLQHLSRSKPLPLTPNSKYNGEASVQLGKTYTVIQDYEPRLTDEIRISLGEKVKILATHTDGWCLVEKCNTQKGSIHVSVDDKRYLNEDRGIVPGDCLQEYD	0.8195	181205	50
Cyk3 (protein, UniProt Q07533 1-885, looked up) Cytokinesis protein 3: MATNLTSLKPPFKVKARYGWSGQTKGDLGFLEGDIMEVTRIAGSWFYGKLLRNKKCSGYFPHNFVILLEERLNSSTENGRQPSKIVESFEKSNKVVIPPVPSRYSDERPRPKKKLSSSMPNSPKKPVDSLTKARKAKSKEMVNEKNIYNTQSSRHHNNSAPNLPLASHSKPQVRNFEESMNNPLPPLPPLPDLDNMRKTDKRAPKKSYSANDLHMARSSREYNYYKDNQKFYDGFIPEKRYSLEEDSISSGLFSNSQYLNDSACSSENSFALMSDFSATSAGSFARHKYAQSFSDSLQRSQNANGCSTKINDSQEFGDSNASSRNGKMGDILRKIIIPKRNTNIYSSSVSSPKSPKAYPKLPDIQNLNLSATPDEARDWIAVKCHLNRARTLTKYDKHPRYMRALEENRDLILHPQDSIYNGLNTNEVKGNTKPGLVDVELAELNIEYIDKMTWKRCIRDGTMTLDSWAQTTFSARYSTVLEKLRGIYIFCTEMFALTDDNGTSDFSAEPQNLEKILYRKHCTPYELTWLFKKLANSLGITCEIVIGFLKTPSAINWEFKYNHCWLRILVNKEWRFIDVILGNVTNPIHEFVNNRKIKKAENSYFLMAPLEMIYTHIPPREFEQHIVPSIDQLSALYLPLVFPSFFKNELKLYKFSTALSFLEDSEIYECSLEIPNDVEVFASVVIPTDNEEASSAYRNMELALTQIKKQKAESGRRIALIKAVLPPNVNKGSLYIHSGVRGTQTSIANIHPLSMMVPLTHKGSNMKYEFVIKIPSESIQKIELYIVEPQSRYLFVGNEYSFEVIQSPSDGIVYSSDEGPNQNRKQPMAIKSPSGRVHELVKSDPHFPYGTWKGSIKIKEPGVWSALVIADSGIGWSVFAEWLCV	0.2689	59466	25
